We go through two molecules from publication doi:10.1101/2025.05.24.655746 (bioRxiv, 2025).

The labels stand for the following.
B1: RAD51 recombinase (natural protein)
chain: MAMQMQLEANADTSVEEESFGPQPISRLEQCGINANDVKKLEEAGFHTVEAVAYAPKKELINIKGISEAKADKILAEAAKLVPMGFTTATEFHQRRSEIIQITTGSKELDKLLQGGIETGSITEMFGEFRTGKTQICHTLAVTCQLPIDRGGGEGKAMYIDTEGTFRPERLLAVAERYGLSGSDVLDNVAYARAFNTDHQTQLLYQASAMMVESRYALLIVDSATALYRTDYSGRGELSARQMHLARFLRMLLRLADEFGVAVVITNQVVAQVDGAAMFAADPKKPIGGNIIAHASTTRLYLRKGRGETRICKIYDSPCLPEAEAMFAINADGVGDAKD

The target of experiment [1] is T1, full-length RAD51AP1-H346A (Site-C mutant) (UniProt Q96B01 1-352, H346A).
T1 sequence: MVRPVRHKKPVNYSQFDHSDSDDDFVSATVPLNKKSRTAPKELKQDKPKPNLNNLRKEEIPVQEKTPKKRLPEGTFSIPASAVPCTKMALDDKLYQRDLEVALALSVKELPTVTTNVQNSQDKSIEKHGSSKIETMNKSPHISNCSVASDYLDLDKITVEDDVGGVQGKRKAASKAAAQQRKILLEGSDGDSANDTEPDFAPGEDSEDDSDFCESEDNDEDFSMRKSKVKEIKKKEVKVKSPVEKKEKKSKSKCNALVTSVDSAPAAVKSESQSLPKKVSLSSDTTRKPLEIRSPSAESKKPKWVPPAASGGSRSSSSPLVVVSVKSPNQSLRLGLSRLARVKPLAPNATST
The experiment can be described thus: BLI. (In general: Biolayer interferometry detects binding as a change in optical thickness at a sensor tip.)

Experiment [2] addresses T2, full-length RAD51AP1 (RAD51 Associated Protein 1), wild type (UniProt Q96B01 1-352).
T2 sequence: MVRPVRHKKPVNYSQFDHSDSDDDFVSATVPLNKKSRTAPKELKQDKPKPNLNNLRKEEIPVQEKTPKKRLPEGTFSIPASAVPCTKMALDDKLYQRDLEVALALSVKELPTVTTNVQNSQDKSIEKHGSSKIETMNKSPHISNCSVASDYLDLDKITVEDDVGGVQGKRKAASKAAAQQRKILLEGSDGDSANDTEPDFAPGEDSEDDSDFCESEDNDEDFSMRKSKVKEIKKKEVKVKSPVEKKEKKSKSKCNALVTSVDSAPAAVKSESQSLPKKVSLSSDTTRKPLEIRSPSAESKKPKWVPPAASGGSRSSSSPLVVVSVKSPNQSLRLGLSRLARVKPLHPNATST
The experiment in a line: BLI.

Experiment [3] addresses T3, full-length RAD51AP1 variant in which both Site-N and Site-C are mutated (NC) (UniProt Q96B01 1-352).
T3 chain: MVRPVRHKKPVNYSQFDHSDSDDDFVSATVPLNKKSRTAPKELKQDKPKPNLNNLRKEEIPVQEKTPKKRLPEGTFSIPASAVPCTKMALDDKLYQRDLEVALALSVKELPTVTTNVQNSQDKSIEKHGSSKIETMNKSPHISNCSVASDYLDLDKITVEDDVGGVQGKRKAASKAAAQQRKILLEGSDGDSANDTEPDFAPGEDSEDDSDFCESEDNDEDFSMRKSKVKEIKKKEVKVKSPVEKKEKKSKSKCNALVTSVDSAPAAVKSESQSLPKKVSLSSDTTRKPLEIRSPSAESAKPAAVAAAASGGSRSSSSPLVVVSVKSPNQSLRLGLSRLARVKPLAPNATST
The experiment in a line: BLI.

Experiment [4] addresses B1. The experiment can be described thus: pull-down.

Broadly, the Kd is the constant that tells how readily two partners part at equilibrium. A higher Kd goes with lower affinity. In the case of B1, in experiment [1], the “fold decrease in binding affinity against wild type” value was about 2.5 fold. In experiment [2], this molecule displayed a dissociation constant (Kd) of about 600 nM. Besides, in experiment [3], the “fold reduction in affinity against wild type” value is about 4 fold.

B2: full-length RAD51AP1 Site-N mutant (K300, K303, W304, P306, P307 to alanine) (natural protein)
chain: MVRPVRHKKPVNYSQFDHSDSDDDFVSATVPLNKKSRTAPKELKQDKPKPNLNNLRKEEIPVQEKTPKKRLPEGTFSIPASAVPCTKMALDDKLYQRDLEVALALSVKELPTVTTNVQNSQDKSIEKHGSSKIETMNKSPHISNCSVASDYLDLDKITVEDDVGGVQGKRKAASKAAAQQRKILLEGSDGDSANDTEPDFAPGEDSEDDSDFCESEDNDEDFSMRKSKVKEIKKKEVKVKSPVEKKEKKSKSKCNALVTSVDSAPAAVKSESQSLPKKVSLSSDTTRKPLEIRSPSAESAKPAAVAAAASGGSRSSSSPLVVVSVKSPNQSLRLGLSRLARVKPLHPNATST
In the case of B2, in experiment [4], the binding result is “binds”.
